Drawing on a protein production outcome set (Wang et al. 2014), this text covers protein production for 15 sequences.

A short description of this series: label from the status in PepcDB records.
“MRILLVEDDELIGELLVKSLTSQHYTVDFAKDGQEGWDFAELYTYDLILLDLILPKLDGISFCRQLRASGNQTPILLLTSQDTSITKVTGLDAGADDYVAKPFDFQELLARIRALLRRGGSALPPLLEWNNLRLDPSTCEVACDGKLLHLTPKEYGLLELFLRNSHRIFSCSALIDQLWSFEEPPTEDTVRSHIKGLRQKLKAAGVVEDPIDTVYGIGYRLKPVQPGREEELNTEKVVAAIANPVENEVRKVWEDVVEKIEQRVAVIEQASHKLLQNKVSEEILSKAKVEAHKLAGSLGMFGSDEGSQIAQEIESLLDNGKKLKASGGKHLGQVVEALHQELENLKSGYKTELSVVETKADDRPLVLVIDQDQELVRESRSQGSEAIAPGQLTDARVMIVDDDPQILTTLQTLLSAWGIKVYTLPHPQGFLAARLGNLAEIDTLTLVANRRKSTQELNHYLQWCHTHQQTLSFAVVKLDGLKQINYNYGHEIGDRVLSQLGELLRQMFHSQDVVGRWGGTEFILGMAGITKGEGVRRLGELLKTFRQIEFINTSNQSFHATLSAAVVEYPQDGDKLEVLYQAADIVLHQSKATGRNRVLSS”: the protein production entry is recorded as “failed”. In the case of “MRILSIHLKNIKSHRDTELTFSAGINVLSGPNGVGKSTVFEAIGYALFGVDARDFVSNVDRFLSIGTKKGEIAVAFCTDAGETWRVTRTVGTPAKWLLAREQGGAFEVEEHARIEETEARIAELLGLDNGRPLAEQFKLVIGPFQNEFLGPFVIKQPTKRQEAFDEILGIDAWRKTYKSTSSLLSAVQEKIKIIAVEIEAKEAQVAVLPEREDELAKIKTDAEALRKVLSSQADALRDVEKQLVELDDQEKGIAALQAEIQILVNRITDGEGKIKDQGQRVGEAEKAGGVLEQTRAGKEAFERAESRLAELVSKDKQRREVEKDVTRLENETQRLTQAVEHEQKEIEGEGRRLREEEDALAKARNELEPDRKVVDTAGRLPGLRDEINRVRSEKGLLEGRRIGLLEGQEKLGEGTCPFFKEPCRNVAGTTPKDVFTTRIAELDRKMQALTEALGKLSVEVADAEAAEKQLAALTVRSQELHKQTMGLVERRARNEKRVATLQTLSTQQIEAATRAKARRDDLQVFAGLDHEIERATAERGRFQADRDAYHAHEKDALDLDNRRQTLEKMLRLLDELQKQLIGKKEELIRLQETYKPGQHKEARDQKDRLVAQVASLGQQIENLEKDRKRLEDEIGKLKLLKDEIGRKQAERNSFEQKEKLVKFLRNQVFKNVSAQLSERFREEISLRADRIYRTIAEADEELVWSENYQIVLRDMTDGVVRERSDDQLSGGQTMSAVVALRLALLQTIGARIAFFDEPTSNLDASRRENLATAFRAIDVGREEVTEHWYDQLFLISHDVAFTEITDQMIQLGE” it was “failed”; in that of “MRIQMATKSSKKYKGVYCDNKGKIFYQIDLGIDPVTGKRVQKKARKNQYGKTFETMKEAYDELVRIKYEFANKVHLENYNMTFENYMNTIYLRAYKQKVQSVTYKTALPHHKLFIQYFGSKPLKAITPRDCEAFRLHIIENYSENYAKNLWSRFKACMGYAERLGYISDMPCKALDNPRGKHPETPFWTYAEFQTFIKSFDLHDYEELQRFTAIWLYYMTGVRVSEGLSLCWEDIDFDKKFLKVHTTLEKDENGNWYRKDQTKTPAGERLIELDDITIEVLQVWRKNQFANQDTDFIISRFGDPFCKSTICRIIKRKAQQVGVPVITGKGLRHSHASYLINVLKKDILYVARRMGHADKSTTLNTYSHWFNALDKTVSEEITQNIKSAGLDSILCQNSCQTSN”, “failed”; in that of “MRIRLFAFCLLLGGCQSQLPPLPDWQSPEGRDDPQTGRIVELRSGVTLSPQQLVARLAAAPRVIVGEKHDNPDHHAVELWLAQALGEYRAQGSLLLEMLDPGQQPRVDAVRAQLGNGKPVANLEEALDWQKGWDWTQYGPLVSWAVAQPAPLLAANLQRSEIMRIYRERPPLPGTASRRDSVRLPLLAQIRESHCGMLPDDQLPAMLAVQQQRDRRMAERLRDAPRPAMLVAGSFHARRDLGVPVHLRDLGAEKGTQVLMLVEAGQAVTTREADYAWYTPAQPDKDYCAEMKKARLEHHHHHH”, “failed”. Consider “MRITHLGHSCILVEAAGQRILVDPGNLSRSWRGLTDLDAILVTHRHPDHVDPEHIGALVDANSGAVVRAEEGACHEIPALDADPVAPGDVLQIGEVRIEAVGGRHAVIHRDLEPIGNVGYLIGEGLGTILYHPGDELDETPRGVDVLACPAHAPWAAMKETVDFARSVGARHGFLIHEGLLNGRGWQLSFDRHQEMVP”, for which the protein production result is reported as “failed”. Consider “MRITHLGHSCILVEAAGQRILVDPGNLSRSWRGLTDLDAILVTHRHPDHVDPEHIGALVDANSGAVVRAEEGACHEIPALDADPVAPGDVLQIGEVRIEAVGGRHAVIHRDLEPIGNVGYLIGEGLGTILYHPGDELDETPRGVDVLACPAHAPWAAMKETVDFARSVGARHGFLIHEGLLNGRGWQLSFDRHQEMVPTTFHDLRNGQPWEVPQDLEHHHHHH”, for which the protein production entry was “failed”. “MRKAYLMESIQPWIEKFIKQAQQQRSQSTKDYPTSYRNLRVKLSFGYGNFTSIPWFAFLGEGQEASNGIYPVILYYKDFDELVLAYGISDTNEPHAQWQFSSDIPKTIAEYFQATSGVYPKKYGQSYYACSQKVSQGIDYTRFASMLDNIINDYKLIFNSGKSVIPPMSKTESYCLEDALNDLFIPETTIETILKRLTIKKNIILQGPPGVGKTFVARRLAYLLTGEKAPQRVNMVQFHQSYSYEDFIQGYRPNGVGFRRKDGIFYNFCQQAKEQPEKKYIFIIDEINRANLSKVFGEVMMLMEHDKRGENWSVPLTYSENDEERFYVPENVYIIGLMNTADRSLAVVDYALRRRFSFIDIEPGFDTPQFRNFLLNKKAEPSFVESLCQKMNELNQEISKEATILGKGFRIGHSYFCCGLEDGTSPDTQWLNEIVMTDIAPLLEEYFFDDPYKQQKWTNKLLGDS”: the protein production entry is given as “failed”. As to “MRKIMREIAVYGKGGIGKSTLSANLSAALALAGRKVLQIGCDPKHDSTRLLTHGREMPTVLDYMRVTNPLDYRLEEVLAHGFSGVGCVEAGGPNPGVGCAGRGIISTFEFLDRFRLKERYDTVVYDVLGDVVCGGFAVPIRKEYADTIFIVTSGEFMALYAANNILRGVRNYDNEEKRIAGILYNRRNIEGEDDRVARFAGAVGLSVCAVIPRSDSFTRAERGKMTVMEQGSDKAIMSIFSGLAQALISGCALHEAKPLTDNELEAIVLGSISSTGGPLSGPDSLPASVTEEPSAAGPPPEIGLTDPNRYLSKNILRSEPLHGCAFNGAMSVGAQISDAVILAHSPKSCTHIMYQTISSAGRRTLFERGALLPVSLAPNLESTDMGEAEMIFGGMEKLEEKILELKARQPRAIVVVSACPAGIIGDDIGRTRRFSEPGLPVVTLKTDGNLAGDYLQGMLMAYTSLARQVIRKDVPTLPDTVNIVFEKFIVTNTNDNFQTIGSLLSRLGVRVNCRFLCETTFDSLETFCTAQLNLLAYKDYTGKLLEDFFTREYGSVFLDRAFPVGFAETEDWLRDVAAFFGRPAAAEGIIEEHKELYAREVEALKADLAGKRLMIITYNHELDWILKTALDVGIDIVKIGVFNFSQDEGFRTRLDAAFNVVENYDRGERDQDIAAYKPDILLTNYASSLADEPFVADTIPMCPDVGFHSGLVLARRWARLLKLNLKGEWRQDELLFRQYYAG”, the protein production result was “failed”. As to “MRKINIFKGKHNPQRTAIDFFKYVGPGLLVTVGFIDPGNWASNVSAGSDYGYSLLWIVTLSTIMLIILQHNAAHLGIVTGDCLSEAVSKKFKPWLTNIILYSAIGAAISTAMAELLGGAIALNMLFRLPIKIGTLIMLSLVIWMLFSSSYKKLERWIIGFVSIIGLSFIFELLLVKVNWQVAAVSFVSPSFPKNSMPIIMSVLGAVVMPHNLFLHSEIIQSRQWNVEKEDVIKRQLRYEFLDTIISMIVGFAINSAMVLLAASTFFKMHVSVSELSQAQALLKPLLGGSASVVFALALLFSGIASTVTAGMAGGSIFAGIYKEPYDIEDSHTQIGVIITMVLAAVIIFFIKDPFKGLIYSQMILSIQLPITIFTQIYLTSSKKVMGKFSNSLLDRVLLGIIAVIVTALNIALLVSYF”, the protein production result is listed as “failed”. In the case of “MRKKLNNEYRSAKKIRYMPGLDGLRAIAVIGIIIYHLNKQWLTGGFLGVDTFFVISGYLITSLLLKEYEDTGTINLKNFWIRRIKRLLPAVFALIVVVGIATLLLHPEHIVRVKHDMIAAIFYVSNWWYIAKDVNYFEQFSFMPLKHLWSLAIEEQFYLFFPAVLLLFMAIVKKKKNVILMFWIISLVSLLMMVVISQPHLNHSRVYFGTDTRLQTLLLGVLLAFIWPPFKLNPNPPKGLKTVINSAGIIGLTFLILLFFTVSDESDWIYNGGFYLISTMTLLIIASVVHPTTILAKLLGNPLFVYIGKRSYSLYLWHFPVISFIHSYFIDGQLPTYVYIMDIVITVLLAELSFRYVETPLRKEGLKAFTFKKTYKPQFIRTIVTLIMLLPFIFILVGAFDKFGKDTISNKAQTFNTNEADQYLIHMIPIDNISLTSDGKTKENKKDNDVYTQIKPLLIGDSVMVDIGEQFKTKVPKAKIDGKVGRQLYQAESLVKNQYRHYNKPSDQIILELGTNGDFTKEQLDNLIDKFGKAQVYLVNTRVPRSYESHVNELMAKAAKNKKNVTLIDWYSRSKGHTEYFAPDGIHLENDGVEALTDEILKNIKKK”, the protein production entry was “failed”. Consider “MRKLTFLLTFFMLLGSVQLQAKEYAIKDIPMVHLQNRTRYVSNPDGILSSTAVTTMDSILYALEQKTGIQTLVVAVTGIEGGDCFDFAHRLGQETGVGQKERDNGLVILLSTDERCVQFATGYGLEGILPDAICKRIQNRYMLPYFKDNNWNAGMVAGIRAVNGYLDGSMENIGNDESEDDPLEFIIIFFVIFGGFIGIGLYANWRKTRCPHCKKHKLQRLSSKVIDRSNGTKTEEVVYKCRNCGHILRRKERSRDENYKGPRGGGPFIGGMGGGFFGGHGGSGGGFSGGSFGGGSFGGGGAGSRF”, for which the protein production entry was “failed”.

“MRKNILITGVHGYIGNALKDKLIEQGHQVDQINVRNQLWKSTSFKDYDVLIHTAALVHNNSPQARLSDYMQVNMLLTKQLAQKAKAEDVKQFIFMSTMAVYGKEGHVGKSDQVDTQTPMNPTTNYGISKKFAEQALQELISDSFKVAIVRPPMIYGAHCPGNFQRLMQLSKRLPIIPNINNQRSALYIKHLTAFIDQLISLEVTGVYHPQDSFYFDTSSVMYEIRRQSHRKTVLINMPSMLNKYFNKLSVFRKLFGNLIYSNTLYENNNALEIIPGKMSLVIADIMDETTTKDKA”: the protein production result is given as “failed”. In the case of “MRKVLFTVALLLTACFVSAQVSVVKEAKSLKSKPEEAAKAIEPALTNPETANDPETWKLAGDFQKAIYDEENMKLYLPGGQADTTKLYNSLAKMYDFYLKCDEIEQAKVQSGELKKPKFRKKNADALKTLRLNLVNGGGDAYNKGDYADALKYFGLFVDVVNEPMFADDDELKADTLNALYACYATLAANMLKDNQAVIKYGNIGKNHKEEGYRALMCLAETYGQKEGGDSAKWLEVIKEGTESFPKQEYFVGNIMDYYIQKGMVDEGLAQINKLLATSETPYYLYVKGILLYEKKQYDDAVAIFNKIISNNGDLVAEAYSKIGDCYFFPAQIIVEENAKLAIDDPKYNENENKIKELYEKAKPYYEKAKELKPDNKALWGNYLLNIYWKLNRAEYDSLEKELGY”, the protein production entry is given as “failed”. As to “MRLAEGIVIEKEKTFGTLKFSALRREVKIVDDEGNVTEQVKERTFDLKKEQGRMIQVSIPASAGVKNFDYNAEVEIINPIADTVATATFQGADVDWYIKAEDIVLKRPAQNQQADQKQNHDKKLEHHHHHH”, the protein production entry is on record as “failed”. In the case of “MRLERTFDPNDLSTQNMESPICLPIGFVHFLAQSQTLQQVLDTVAEWINRIFESDRTSITLYENSDYLKVYSFSGNKAIPADFLVPIDQAFVGRVFKNQQLIICDDVSQSDELDCVMLTSSGMGTCMDAPLMHGQMCLGTLNVAHHQTHFYTKEQAAQLQCIANWIALNIALHIQIMKMEHLATTDDLTGIPNRREFMRQIEHRLSEFRTQGIKFHVAILDLDNFKKLNDKFGHDAGDKSLIHAANTIKGHLRECDLLARVGGEEFAIVLRSRSSQEAMDTLETIRNALETTTIRYSGRDMTFTASIGVTQVCGLDDSFEPLVKRADLALYKAKETGRNRVEINHSEHQGVSNEQ” it was “failed”.
